Values joined by “and” are separate entries in the source; they are usually repeats but may differ in a detail not shown here. Equal entries are not always repeated.
Legend:
[1] = target: TnsC (ShCAST AAA+ regulator) (Scytonema hofmannii)
Target sequence in this assay (A0A8J0PCL3 entry or part of it): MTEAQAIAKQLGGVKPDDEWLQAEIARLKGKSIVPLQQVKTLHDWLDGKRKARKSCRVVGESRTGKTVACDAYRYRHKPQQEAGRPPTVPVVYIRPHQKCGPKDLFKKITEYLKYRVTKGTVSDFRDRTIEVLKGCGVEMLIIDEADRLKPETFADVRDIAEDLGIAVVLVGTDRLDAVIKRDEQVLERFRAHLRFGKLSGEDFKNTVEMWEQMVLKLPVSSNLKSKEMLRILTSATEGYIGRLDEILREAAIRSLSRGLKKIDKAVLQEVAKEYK

[2] = target: TnsB (ShCAST transposase), wild type (Scytonema hofmannii); experiment: cryo-EM structure; ShCAST transpososome assembled stepwise on streptavidin beads through desthiobiotinylated target-pot DNA (Cas12k-sgRNA, S15, TniQ, TnsC, 1 mM ATP, then TnsB with donor-pot DNA), 37 °C, 20 mM HEPES pH 7.5, 250 mM KCl, 15 mM MgCl2, eluted with biotin; major (12 TnsC) and minor (13 TnsC) configurations from one data set
[3] = target: TnsC (ShCAST AAA+ regulator) (Scytonema hofmannii); experiment: as above
[4] = target: T1, ShCAST transpososome (TnsC in complex with TnsB, TniQ, Cas12k and S15) (Scytonema hofmannii, UniProt A0A8J0PCL3); experiment: cryo-EM structure; assay type: binding; details: ATP with Mg2+ in all TnsC protomers; 1 mM ATP, 15 mM MgCl2, pH 7.5; also minor configuration 8EA4
T1 construct: recombinant proteins from E. coli, TwinStrep-SUMO vectors; assembled on sgRNA and strand-transfer DNA; about 961 kDa; 12 TnsC (major) or 13 TnsC (minor); S15 from E. coli K-12 MG1655; with Transposase TnsB; TniQ family protein TniQ; CRISPR-associated effector Cas12k; Small ribosomal subunit protein uS15 (Escherichia coli K-12 MG1655)
T1 sequence (A0A8J0PCL3 entry or part of it): as above
T1 sequence (A0A979HMQ2 entry or part of it, further chain): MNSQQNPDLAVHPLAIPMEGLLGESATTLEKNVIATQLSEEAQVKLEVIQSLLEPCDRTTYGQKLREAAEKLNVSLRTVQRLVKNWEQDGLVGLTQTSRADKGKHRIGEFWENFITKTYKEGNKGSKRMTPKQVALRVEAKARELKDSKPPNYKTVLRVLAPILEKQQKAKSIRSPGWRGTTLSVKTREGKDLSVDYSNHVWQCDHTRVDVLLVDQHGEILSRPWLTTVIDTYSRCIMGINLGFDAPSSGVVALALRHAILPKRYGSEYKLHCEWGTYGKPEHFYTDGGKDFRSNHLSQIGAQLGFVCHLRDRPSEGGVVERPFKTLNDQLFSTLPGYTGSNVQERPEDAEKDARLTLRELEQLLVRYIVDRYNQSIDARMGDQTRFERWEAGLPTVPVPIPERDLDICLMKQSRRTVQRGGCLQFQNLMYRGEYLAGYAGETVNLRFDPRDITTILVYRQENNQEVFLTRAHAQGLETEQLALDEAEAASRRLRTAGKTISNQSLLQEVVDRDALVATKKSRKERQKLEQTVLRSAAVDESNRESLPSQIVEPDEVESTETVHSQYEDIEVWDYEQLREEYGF
T1 sequence (A0A8J0PCL5 entry or part of it, further chain): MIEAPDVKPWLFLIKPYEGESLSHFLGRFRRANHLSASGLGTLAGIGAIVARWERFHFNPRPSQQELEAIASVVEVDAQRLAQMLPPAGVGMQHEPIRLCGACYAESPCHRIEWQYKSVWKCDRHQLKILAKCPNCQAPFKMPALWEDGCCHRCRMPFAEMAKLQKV
T1 sequence (A0A8M0FGU0 entry or part of it, further chain): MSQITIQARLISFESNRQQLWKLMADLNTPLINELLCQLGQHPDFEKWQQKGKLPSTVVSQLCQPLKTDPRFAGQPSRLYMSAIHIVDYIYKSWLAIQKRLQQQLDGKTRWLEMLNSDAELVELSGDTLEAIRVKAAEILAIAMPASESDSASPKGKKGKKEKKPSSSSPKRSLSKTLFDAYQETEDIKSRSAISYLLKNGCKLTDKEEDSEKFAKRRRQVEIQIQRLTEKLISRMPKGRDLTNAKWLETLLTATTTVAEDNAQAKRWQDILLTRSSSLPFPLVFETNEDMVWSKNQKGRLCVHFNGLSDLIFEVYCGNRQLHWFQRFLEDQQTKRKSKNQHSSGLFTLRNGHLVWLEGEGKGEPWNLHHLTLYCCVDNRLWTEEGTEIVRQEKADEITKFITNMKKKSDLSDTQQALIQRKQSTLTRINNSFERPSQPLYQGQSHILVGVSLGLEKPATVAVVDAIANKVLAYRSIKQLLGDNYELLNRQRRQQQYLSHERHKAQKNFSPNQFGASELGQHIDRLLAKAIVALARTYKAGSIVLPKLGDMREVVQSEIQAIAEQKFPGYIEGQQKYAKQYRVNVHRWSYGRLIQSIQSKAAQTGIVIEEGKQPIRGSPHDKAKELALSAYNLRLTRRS

## TnsB (ShCAST transposase), wild type (enzyme)
[1]
  on-target percentage of in vitro transposition (Illumina sequencing), in the absence of S15: 69%
  on-target percentage of in vitro transposition (Illumina sequencing), with S15: 99%
[2]
  stoichiometry N: 4

## TnsB R432A (enzyme)
[1]
  on-target percentage of in vitro transposition (Illumina sequencing), in the absence of S15: < 6%

## TnsC (ShCAST AAA+ regulator) (natural protein)
[3]
  stoichiometry N: 12 and 13

## TnsB Y439A (enzyme)
[1]
  on-target percentage of in vitro transposition (Illumina sequencing), in the absence of S15: < 6%

## Nc1ncnc2c1ncn2[C@@H]1O[C@H](COP(=O)(O)OP(=O)(O)OP(=O)(O)O)[C@@H](O)[C@H]1O [ATP]
[4]
  cryo-EM structure: This improved map demonstrates that ATP is bound to all protomers
